The record followed here is patent publication US20220064329A1 (Novo Nordisk, published 2022).

Sequences and labels used below:
T1: recombinant human activated Factor VII (FVIIa) (human, UniProt P08709 61-212; P08709 213-466, ten glutamate residues of the Gla domain may be gamma-carboxylated)
T1 construct: chains tethered by a disulfide bond; also called Factor VIIa; rFVIIa
T1 sequence 1: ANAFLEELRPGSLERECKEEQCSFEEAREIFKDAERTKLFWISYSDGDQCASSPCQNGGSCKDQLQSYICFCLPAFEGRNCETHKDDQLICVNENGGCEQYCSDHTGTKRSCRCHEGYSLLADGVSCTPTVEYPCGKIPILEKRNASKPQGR
T1 sequence 2: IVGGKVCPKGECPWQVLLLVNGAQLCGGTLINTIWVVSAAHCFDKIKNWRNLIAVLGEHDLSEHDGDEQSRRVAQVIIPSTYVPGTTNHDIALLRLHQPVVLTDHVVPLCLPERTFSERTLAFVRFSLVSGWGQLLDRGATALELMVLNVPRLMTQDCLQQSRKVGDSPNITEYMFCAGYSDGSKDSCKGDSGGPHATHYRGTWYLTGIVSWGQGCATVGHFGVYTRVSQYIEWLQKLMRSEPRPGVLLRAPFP

B1: mAb0709(OA) (antibody, human IgG4 S228P, kappa)
heavy: QVQLQESGPGLVKPSQTLSLTCTVSGYSISSDSAWSWIRQPPGKGLEWIGYIQYSGSTNYNPSLKSRVTISRDTSKNQFSLKLSSVTAADTAVYYCARSVNYYGNSFAVGPWGQGTLVTVSSASTKGPSVFPLAPCSRSTSESTAALGCLVKDYFPEPVTVSWNSGALTSGVHTFPAVLQSSGLYSLSSVVTVPSSSLGTKTYTCNVDHKPSNTKVDKRVESKYGPPCPPCPAPEFLGGPSVFLFPPKPKDTLMISRTPEVTCVVVDVSQEDPEVQFNWYVDGVEVHNAKTKPREEQFNSTYRVVSVLTVLHQDWLNGKEYKCKVSNKGLPSSIEKTISKAKGQPREPQVYTLPPSQEEMTKNQVSLSCAVKGFYPSDIAVEWESNGQPENNYKTTPPVLDSDGSFFLVSRLTVDKSRWQEGNVFSCSVMHEALHNHYTQKSLSLSLGK
light: EIVLTQSPATLSLSPGERATLSCRASQGISDYLHWYQQKPGEAPRLLIKYTSQPATGIPARFSGSGSGTDFTLTISSLEPEDFAVYYCQNGHSFPLTFGQGTKLEIKRTVAAPSVFIFPPSDEQLKSGTASVVCLLNNFYPREAKVQWKVDNALQSGNSQESVTEQDSKDSTYSLSSTLTLSKADYEKHKVYACEVTHQGLSSPVTKSFNRGEC
chain: not shown
notes: one-armed (OA) antibody, constant domain type F (knob-in-hole)
B2: mAb0710(OA) (antibody, human IgG4 S228P, kappa)
heavy: B1 heavy with P41F
light: B1 light with E42Q
chain: not shown
notes: as for B1
B3: mAb0707(OA) (antibody, human IgG4 S228P, kappa)
heavy: B1 heavy with K13E
light: B1 light
chain: not shown
notes: as for B1
B4: mAb0706(OA) (antibody, human IgG4 S228P, kappa)
heavy: B1 heavy with K13E, P111Y
light: B1 light with E42Q
chain: not shown
notes: as for B1
B5: mAb0705(OA) (antibody, human IgG4 S228P, kappa)
heavy: B1 heavy with P111Y
light: B1 light
chain: not shown
notes: one-armed (OA) antibody, constant domain type F (knob-in-hole); also called monovalent humanized 11F2
B6: mAb0077(OA) (antibody, human IgG4 S228P, kappa)
heavy: not shown
light: DIVMTQSPATLSVTAGDRVSLSCRASQGISDYLHWYQQKSHESPRLLIKYTSQPVSGIPSRFSGSGSGSEFTLSINSVEPEDVGVYYCQNGHSFPLTFGAGTKLELKRTVAAPSVFIFPPSDEQLKSGTASVVCLLNNFYPREAKVQWKVDNALQSGNSQESVTEQDSKDSTYSLSSTLTLSKADYEKHKVYACEVTHQGLSSPVTKSFNRGEC
chain: VESKYGPPCPPCPAPEFLGGPSVFLFPPKPKDTLMISRTPEVTCVVVDVSQEDPEVQFNWYVDGVEVHNAKTKPREEQFNSTYRVVSVLTVLHQDWLNGKEYKCKVSNKGLPSSIEKTISKAKGQPREPQVYTLPPSQEEMTKNQVSLTCLVKGFYPSDIAVEWESNGQPENNYKTTPPVLDSDGSFLLYSKLTVDKSRWQEGNVFSCSVMHEALHNHYTQKSLSLSLGK
notes: one-armed (OA) antibody, constant domain type E (Duobody); murine VL/VH; also called monovalent 11F2
B7: mAb0099(OA) (antibody, human IgG4 S228P, kappa)
heavy: DVQLQESGPGLVEPSQSLSLTCTVTGYSITSDSAWSWIRQFPGNKLEWMGYIQYSGSTNYNPSLKSRISVTRDTSKNQFFLRLSSVTAEDTATYYCTRSVNYYGNSFAVGYWGQGTSVTVSSASTKGPSVFPLAPCSRSTSESTAALGCLVKDYFPEPVTVSWNSGALTSGVHTFPAVLQSSGLYSLSSVVTVPSSSLGTKTYTCNVDHKPSNTKVDKRVESKYGPPCPPCPAPEFLGGPSVFLFPPKPKDTLMISRTPEVTCVVVDVSQEDPEVQFNWYVDGVEVHNAKTKPREEQFNSTYRVVSVLTVLHQDWLNGKEYKCKVSNKGLPSSIEKTISKAKGQPREPQVYTLPPSQEEMTKNQVSLSCAVKGFYPSDIAVEWESNGQPENNYKTTPPVLDSDGSFFLVSRLTVDKSRWQEGNVFSCSVMHEALHNHYTQKSLSLSLGK
light: B6 light
chain: not shown
B8: mAb0138(OA) (antibody, human IgG4 S228P, kappa)
heavy: not shown
light: B1 light with F83V, A84G, Q100A, I106L
chain: B6 chain
notes: one-armed (OA) antibody, constant domain type E
B9: mAb0143(OA) (antibody, human IgG4 S228P, kappa)
heavy: not shown
light: B1 light with A84G, Q100A, I106L
chain: B6 chain
notes: as for B8
B10: mAb0142(OA) (antibody, human IgG4 S228P, kappa)
heavy: not shown
light: B1 light with D31S, F83V, A84G, Q100A, I106L
chain: B6 chain
notes: as for B8
B11: mAb0141(OA) (antibody, human IgG4 S228P, kappa)
heavy: not shown
light: B1 light with F83V, A84G, Q100A, I106L
chain: B6 chain
notes: as for B8
B12: mAb0140(OA) (antibody, human IgG4 S228P, kappa)
heavy: not shown
light: B1 light with F83V, A84G, Q100A, I106L
chain: B6 chain
notes: as for B8

Numbering of substitutions follows the chain as printed.

The target in one test is T1, recombinant human activated Factor VII …. In words: SPR (Biacore).
As for B1, the Kd is 0.104 nM.
Still for that read-out and setting: the result for B2 reads 0.128 nM; that for B3, 0.106 nM.
As to B4, the Kd is 0.0542 nM.
On the same count and under the same terms, under B5 stands 0.0505 nM.
For B6, the Kd came to 0.041 nM.
As for B7, the Kd stood at 0.12 nM.
As to B8, the Kd is 0.13 nM.
For B9, the equilibrium dissociation constant (Kd) came out at 0.079 nM.
As to B10, the Kd came to 1 nM.
Regarding B11, the Kd turned out to be 0.078 nM.
With B12, the Kd worked out at 0.083 nM.

The target is the same in the next test. In words: cell-based or functional assay.
On to B1, for which the “AT inhibition (kinh %)” value was determined as 137% and the “TGT activity (%% FVIIa)” value was 103%.
As for B2, the “AT inhibition (kinh %)” value was 136% and the “TGT activity (%% FVIIa)” value was determined as 102%.
For B3, in that order: 129% and 102%.
For B4, in that order: 132% and 101%.
On to B5, for which the “AT inhibition (kinh %)” value turned out to be 129% and the “TGT activity (%% FVIIa)” value amounted to 100%.
For the molecule B6, the “AT inhibition (kinh %)” value stood at 119% and the “TGT activity (%% FVIIa)” value amounted to 103%.
For B7, in that order: 117% and 98%.
As for B8, the “AT inhibition (kinh %)” value came out at 105% and the “TGT activity (%% FVIIa)” value was determined as 99%.
Take B9: the “AT inhibition (kinh %)” value is 109% and the “TGT activity (%% FVIIa)” value turned out to be 107%.
For B10, in that order: 114% and 106%.
Turning to B11, the “AT inhibition (kinh %)” value stood at 109% and the “TGT activity (%% FVIIa)” value amounted to 103%.
As to B12, the “AT inhibition (kinh %)” value came out at 106% and the “TGT activity (%% FVIIa)” value was 100%.
